According to paper PMC4423211 (2015):
pKd: −log10 of the molar value. Values belong to the substance of their own block, whether it stands above or below them.

What was measured:
[1] = target: IL1RAPL1-ECD D292A (mouse) (UniProt P59823); experiment: SPR; equilibrium; Biacore T200, 25 °C, 10 mM Hepes (pH 7.9), 150 mM NaCl, 0.05% Tween-20; IL1RAPL1-ECD-His6 amine-coupled on a CM5 chip (about 2,000 RU); PTPδ Ig1–Fn1 variants or mutants injected as analytes, 15.6 to 4,000 nM
[2] = target: IL1RAPL1-ECD D37A (mouse) (UniProt P59823); experiment: as above
Sequence of IL1RAPL1-ECD D37A (mouse) (P59823 19-352 D37A): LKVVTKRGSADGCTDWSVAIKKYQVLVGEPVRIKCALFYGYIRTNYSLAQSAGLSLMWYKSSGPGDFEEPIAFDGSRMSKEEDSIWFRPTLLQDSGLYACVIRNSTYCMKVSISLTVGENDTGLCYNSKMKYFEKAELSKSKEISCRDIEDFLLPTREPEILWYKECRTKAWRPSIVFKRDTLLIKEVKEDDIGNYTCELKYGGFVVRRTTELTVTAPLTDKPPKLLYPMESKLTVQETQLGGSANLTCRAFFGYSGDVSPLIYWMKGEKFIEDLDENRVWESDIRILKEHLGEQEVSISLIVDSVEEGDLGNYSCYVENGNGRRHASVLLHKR

[3] = target: IL1RAPL1-ECD M75A/Y77A/P88A/F91A (mouse) (UniProt P59823); experiment: as above
Sequence of IL1RAPL1-ECD M75A/Y77A/P88A/F91A (mouse) (P59823 19-352 M75A/Y77A/P88A/F91A): as the sequence (P59823 19-352 D37A) above, with A19D, M57A, Y59A, P70A, F73A counted along it

[4] = target: IL1RAPL1-ECD-His6, wild type (mouse) (UniProt P59823); experiment: as above
Sequence of IL1RAPL1-ECD-His6, wild type (mouse) (P59823 19-352): as the sequence (P59823 19-352 D37A) above, with A19D counted along it

[5] = target: IL-1RAcP-ECD D30A (mouse) (UniProt Q61730); experiment: SPR; equilibrium; Biacore T200, 25 °C, 10 mM Hepes (pH 7.9), 150 mM NaCl, 0.05% Tween-20; IL-1RAcP-ECD-Fc captured (about 700 RU) by anti-Fc antibodies immobilised on a CM5 chip; PTPδ Ig1–Fn1 variants or mutants injected as analytes, 15.6 to 4,000 nM
Sequence of IL-1RAcP-ECD D30A (mouse) (Q61730 21-367 D30A): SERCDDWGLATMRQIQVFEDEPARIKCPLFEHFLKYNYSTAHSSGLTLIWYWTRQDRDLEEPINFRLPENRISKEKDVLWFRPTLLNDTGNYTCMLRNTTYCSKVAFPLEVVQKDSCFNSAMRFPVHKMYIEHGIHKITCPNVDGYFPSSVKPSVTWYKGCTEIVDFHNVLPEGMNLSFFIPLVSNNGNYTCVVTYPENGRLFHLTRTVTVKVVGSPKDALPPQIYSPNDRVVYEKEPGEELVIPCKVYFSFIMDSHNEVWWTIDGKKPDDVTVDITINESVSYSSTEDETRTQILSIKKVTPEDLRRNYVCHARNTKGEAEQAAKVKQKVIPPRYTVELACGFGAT

[6] = target: IL-1RAcP-ECD K94A (mouse) (UniProt Q61730); experiment: as above
Sequence of IL-1RAcP-ECD K94A (mouse) (Q61730 21-367 K94A): as the sequence (Q61730 21-367 D30A) above, with A10D, K74A counted along it

[7] = target: IL-1RAcP-ECD W27A (mouse) (UniProt Q61730); experiment: as above
Sequence of IL-1RAcP-ECD W27A (mouse) (Q61730 21-367 W27A): as the sequence (Q61730 21-367 D30A) above, with W7A, A10D counted along it

[8] = target: IL-1RAcP-ECD-Fc, wild type (mouse) (UniProt Q61730); experiment: as above
Sequence of IL-1RAcP-ECD-Fc, wild type (mouse) (Q61730 21-367): as the sequence (Q61730 21-367 D30A) above, with A10D counted along it

[9] = target: IL-1RAcP-ECD (His6-tagged, for crystallography) (mouse) (UniProt Q61730); experiment: crystal structure; sitting drop vapour diffusion at 20 °C; the two proteins mixed at a molar ratio of 1:1 to about 6 g/l before crystallisation
Sequence of IL-1RAcP-ECD (His6-tagged, for crystallography) (mouse) (Q61730 21-351): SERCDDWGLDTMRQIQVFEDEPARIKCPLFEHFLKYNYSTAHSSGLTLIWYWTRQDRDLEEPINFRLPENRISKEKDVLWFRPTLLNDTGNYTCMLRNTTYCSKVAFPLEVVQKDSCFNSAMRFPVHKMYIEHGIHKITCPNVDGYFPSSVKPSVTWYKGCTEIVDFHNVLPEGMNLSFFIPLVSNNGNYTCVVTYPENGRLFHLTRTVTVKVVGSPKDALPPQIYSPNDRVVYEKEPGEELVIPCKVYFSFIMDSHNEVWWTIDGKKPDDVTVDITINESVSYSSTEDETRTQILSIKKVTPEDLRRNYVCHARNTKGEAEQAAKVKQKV

[10] = target: IL1RAPL1-ECD-His6, wild type (mouse) (UniProt P59823); experiment: as above

Sequence of IL1RAPL1-ECD D292A (mouse) (P59823 19-352 D292A): as the sequence (P59823 19-352 D37A) above, with A19D, D274A counted along it

pKd [1]: 5.66
pKd [2]: 5.62
pKd [3]: 5.55
pKd [4]: 6.82
pKd [5]: 6.21
pKd [6]: 5.09
pKd [7]: 5.34
pKd [8]: 6.17
Substance: PTPδ Ig1–Fn1 (isoform containing meA9 and meB), wild type (domain or fragment)

stoichiometry N [9]: 1
Substance: PTPδ Ig1–Fn2 (domain or fragment)

stoichiometry N [10]: 1
Substance: PTPδ-ECD (full-length extracellular domain) (domain or fragment)
